# Data: patent US12194082B2, “Compositions and methods for treatment of homocystinuria” (THE REGENTS OF THE UNIVERSITY OF COLORADO, priority 2016, dated 2025)
# Read-outs that look alike come from different tables or passages of the source.
# Key:
# [1] = for Peak @ SS, predicted / Trough @ SS, predicted: 80% bioavailability assumed; for Extrapolated concentration: hypothetical single dose curve
# Method: Using a dose of 5 mg/kg and correcting for the difference in body surface area between humans (70 kg) and mice (0.025 kg), a dose of 0.4 mg/kg was estimated to be the efficacious human equivalent dose (HED). […] Since the substrate for 20NHS PEG-htCBS C15S activity (Hcy and serine) was the same across species and the site of action was the blood pool itself, these parameters provide an accurate estimate of the target human plasma levels required for efficacy in a 20NHS PEG-htCBS clinical trial.
# Interspecies comparisons were conducted based upon body surface area scaling assuming an 80% bioavialability in all 3 species (mouse, rat and monkey) to determine if a linear correlation existed between the log body weight and the log of various PK parameters (AUC/dose, Cmax per dose and T1/2). […] Linear correlations allow predictions of the clinical dose and dosing regimen from the preclinical data to be made.
# By extrapolating to the log body weight for humans (70 kg) for each parameter, the AUC/dose, Cmax/dose, and T1/2 was calculated for human subjects.
# The human predicted efficacious dose was calculated from the efficacious dose in mice (5 mg/kg) by allometric scaling to be 0.4 mg/kg in a 70 kg human.
# [2] = tested on: homocysteine, cystathionine, and cysteine; assay: Long-term administration of PEGylated htCBS C15S conjugates in HO mice: plasma metabolites; format: in vivo; conditions: 7.5 mg/kg/day SC, 5 daily injections per bout
# Method: In one set of experiments, htCBS C15S PEGylated with either ME-200MA0B, ME-200GS, GL4-400MA, or ME-400MA was evaluated. Six groups of HO mice were used to conduct these studies: two groups received 200MA0B PEG-htCBS C15S (Groups 1 and 3), one group received 20NHS PEG-htCBS C15S (Group 4), one group received GL4-400MA PEG-htCBS C15S (Group 5), and two groups received 400MA PEG-htCBS C15S (Group 6 and 7). Both male and female HO mice were used (total n=6 to 8 mice per group) in these studies.
# For Group 1, the mice received 2 bouts of 5 daily subcutaneous injections of 200MA0B PEG-htCBS C15S on days 1, 2, 3, 4, and 5 (week 1) and days 15, 16, 17, 18, and 19 (week 3). The dose for this experiment was 5 mg/kg/day. A saline control group (Group 2) was included in this experiment. All other groups received 3 bouts of 5 daily subcutaneous injections on days 1, 2, 3, 4, and 5 (week 1); days 15, 16, 17, 18, and 19 (week 3); and days 29, 30, 31, 32 and 33 (week 5). The dose for these experiments was 7.5 mg/kg/day.
# In a separate set of experiments, htCBS C15S PEGylated with ME-200MA0B or ME050GS was evaluated. Two groups of male and female HO mice (1M/5F) received 3 bouts of 5 daily subcutaneous injections of either 200MA0B PEG-htCBS C15S (Group 8) or 050GS PEG-htCBS (Group 9) on days 1, 2, 3, 4, and 5 (week 1); days 15, 16, 17, 18, and 19 (week 3); and days 29, 30, 31, 32 and 33 (week 5). The dose was 7.5 mg/kg/day.
# In all sets of experiments, each 5-day dosing cycle was followed by a 10-day “washout period”. Blood was sampled using a submandibular lancet on Monday, Wednesday, and Friday of the dosing weeks (1, 3, and 5) and on the first day (Monday) of each 10-day washout period. All blood sampling procedures and subcutaneous injections were conducted at 3 P.M. to avoid artifacts due to diurnal variations. On days where both blood sampling and injection were conducted the blood sampling procedure was conducted prior to enzyme administration.
# The pharmacodynamic response in HO mice to each PEGylated htCBS C15S conjugate was assessed for each bout of dosing by quantitating plasma levels of metabolites homocysteine, cystathionine, and cysteine, which are associated with the transsulfuration pathway, at baseline and after treatment. Quantification was performed by stable-isotope-dilution liquid chromatography mass spectrometry (LC/MS) as described in Example 1. The maximal percent change of homocysteine, cystathionine, and cysteine was calculated compared to baseline values for each dose week.
# I278T mice = assay: Eye defects (ciliary zonule) in I278T mice; format: in vivo, mouse; conditions: 7.5 mg/kg SC 3x/week from 2 days to 4 months of age
# Method: Mice were subjected to perfusion fixation with 4% paraformaldehyde in 1×PBS pH 7.4 (4% PFA) to preserve the walls of the eye globe. Eyes were carefully surgically removed, submerged into 4% PFA and a small hole was carefully made in the posterior globe of the eye right below the optic nerve to allow the fixative to permeate to the interior of the eye and fixate the structures overnight at 4° C. The samples were washed 3 times using filtered 1×PBS pH 7.4. After washing, the posterior globe of the eye was carefully dissected down to the level of the ciliary epithelium to expose the ciliary zonule. The sample was placed in 8% BSA blocking solution for 2 hours with shaking. After blocking, MAGP1 antibodies (Sigma) diluted 1:50 in 4% BSA were added to the sample and stored at 4° C. overnight. The next day, the sample was washed 6 times using 1×PBS pH 7.4, and Alexa 488 secondary antibodies (1:200, Invitrogen) were added to the sample and incubated for 2 hours at room temperature with shaking. […]
# The changes in metabolite levels in plasma were measured in I278T (+/−) healthy heterozygous control mice, untreated −/− affected homozygous control mice, and 20NHS PEG-htCBS C15S-treated −/− homozygous I278T mice. […] Levels measured beginning at 72 hours after the injection as mice were on the treatment from 2 days of age.
# [3] = body surface area scaling, 70 kg human
# [4] = human, 0.33 mg/kg SC 1x/week (168 h)
# [5] = human, 0.33 mg/kg SC 2x/week (84 h)
# [6] = human, 0.66 mg/kg SC 1x/week (168 h)
# [7] = human, 0.66 mg/kg SC 2x/week (84 h)
# [8] = human, 1 mg/kg SC 1x/wk (168 h)
substance,measurement,setting,value
20NHS PEG-htCBS C15S: htCBS C15S PEGylated with ME-200GS PEG (20 kDa linear NHS ester-activated PEG),"Initial Cmax, predicted",[1]; 0.33 mg/kg,11.3 mU/μL
same,"Initial Cmax, predicted",[1]; 0.66 mg/kg,22.6 mU/μL
same,"Initial Cmax, predicted",[1]; 1 mg/kg,34 mU/μL
same,"AUC/dose, human predicted value",[1]; [3],7474 (mU-h/mL)/(mg/kg)
same,"Cmax/dose, human predicted value",[1]; [3],34 (mU/μL)/(mg/kg)
same,E intercept of hypothetical single dose PK curve,[1]; human,43.079
same,"Peak @ SS, predicted",[1]; [4],22.6 mU/μL
same,"Trough @ SS, predicted",[1]; [4],15.4 mU/μL
same,"Peak @ SS, predicted",[1]; [5],41 mU/μL
same,"Trough @ SS, predicted",[1]; [5],34.5 mU/μL
same,"Peak @ SS, predicted",[1]; [6],45.2 mU/μL
same,"Trough @ SS, predicted",[1]; [6],30.8 mU/μL
same,"Peak @ SS, predicted",[1]; [7],82 mU/μL
same,"Trough @ SS, predicted",[1]; [7],69 mU/μL
same,"C1min, predicted",[1]; [8],22.3
same,"Peak @ SS, predicted",[1]; [8],67.9 mU/μL
same,"Trough @ SS, predicted",[1]; [8],46.2 mU/μL
same,"C1min, predicted","[1]; human, 1 mg/kg SC 2x/wk (84 h)",29.0
same,"Peak @ SS, predicted","[1]; human, 1 mg/kg SC 2x/wk (84 h)",123 mU/μL
same,"Trough @ SS, predicted","[1]; human, 1 mg/kg SC 2x/wk (84 h)",109 mU/μL
same,Extrapolated concentration,"[1]; human, 0 hours",0
same,Extrapolated concentration,"[1]; human, 1 hours",0.9
same,Extrapolated concentration,"[1]; human, 2 hours",2
same,Extrapolated concentration,"[1]; human, 4 hours",4.3
same,Extrapolated concentration,"[1]; human, 8 hours",8
same,Extrapolated concentration,"[1]; human, 20 hours",20
same,Extrapolated concentration,"[1]; human, 48 hours",33.3
same,Extrapolated concentration,"[1]; human, 72 hours",34
same,Extrapolated concentration,"[1]; human, 96 hours",28
same,Extrapolated concentration,"[1]; human, 240 hours",16.7
same,Extrapolated concentration,"[1]; human, 336 hours",12
same,Extrapolated concentration,"[1]; human, 408 hours",8.5
same,"cystathionine, Percent Increase at Peak, Week 1",[2],676%
same,"cystathionine, Percent Increase at Peak, Week 3",[2],492%
same,"cystathionine, Percent Increase at Peak, Week 5",[2],432%
same,"cysteine, Percent increase at Peak, Week 1",[2],59%
same,"cysteine, Percent increase at Peak, Week 3",[2],61%
same,"cysteine, Percent increase at Peak, Week 5",[2],51%
same,"total Hcy, Percent Decrease at Trough, Week 1",[2],77%
same,"total Hcy, Percent Decrease at Trough, Week 3",[2],70%
same,"total Hcy, Percent Decrease at Trough, Week 5",[2],66%
same,"total Hcy, Percent Decrease at Trough, Week 1",[2]; listed as ME-200GS,77%
same,"total Hcy, Percent Decrease at Trough, Week 3",[2]; listed as ME-200GS,70%
same,"total Hcy, Percent Decrease at Trough, Week 5",[2]; listed as ME-200GS,66%
same,eye defects (zonular fibers),I278T mice,positive effect on the eye defects
